# Measured values: paper PMC2884007
# What was measured:
# [1] = target: Mimivirus cyclophilin (mimicyp), full length wild type (Mimivirus) (UniProt Q5UP71); test: SEC + other: NMR
# [2] = target: Mimivirus cyclophilin (mimicyp), full length wild type (Mimivirus) (UniProt Q5UP71); test: crystal structure
substance,measurement,setting,value
"Mimivirus cyclophilin (mimicyp), full length wild type (from UniProt Q5UP71 1-234) (natural protein)",Kd,[1],50 to 500 µM
same,stoichiometry N,[2],3
